Experimental data as given in publication PMC12084609, “Structural insights into small-molecule agonist recognition and activation of complement receptor C3aR” (The EMBO Journal, 2025).
Changes are numbered by the printed parent chain. Values joined by “and” are separate entries in the source; they are usually repeats but may differ in a detail not shown here. Identical values can stand only once.

Key:
Format in all cases: cell-based
C3aR H81^2.63A = molecular target: T1, C3aR H81^2.63A (Homo sapiens, UniProt Q16581, H81A); experiment: GloSensor-based cAMP assay, C3aR mutant H81A; details: for cAMP response (% Forskolin): H812.63A, single replicates
T1 construct: expressed in transfected cells; host or cells: HEK293T
T1 sequence (Q16581 1-482 H81A): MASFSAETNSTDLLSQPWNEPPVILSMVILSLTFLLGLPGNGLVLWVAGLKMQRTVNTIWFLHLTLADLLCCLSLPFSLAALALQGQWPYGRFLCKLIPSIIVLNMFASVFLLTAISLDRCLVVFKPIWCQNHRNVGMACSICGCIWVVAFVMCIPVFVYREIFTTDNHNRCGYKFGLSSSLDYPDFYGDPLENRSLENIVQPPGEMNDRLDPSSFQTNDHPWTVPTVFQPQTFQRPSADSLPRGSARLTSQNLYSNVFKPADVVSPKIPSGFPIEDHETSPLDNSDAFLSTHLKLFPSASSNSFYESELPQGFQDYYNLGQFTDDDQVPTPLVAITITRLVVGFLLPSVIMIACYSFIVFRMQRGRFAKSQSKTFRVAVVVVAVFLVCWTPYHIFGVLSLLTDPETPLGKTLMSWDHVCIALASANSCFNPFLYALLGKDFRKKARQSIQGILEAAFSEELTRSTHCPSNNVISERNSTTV
Procedure: (§1) HEK293T cells were seeded on 6-well plates (NEST) and transfected with pGlosensor™-22F plasmids (Promega) and pcDNA3.1 plasmids encoding C3aR or its mutants an with N-terminal FLAG tag. After 48 h, cells were detached with Accutase solution (Sigma-Aldrich) and washed with PBS, and resuspended in assay buffer (CO2-independent medium with 0.5 mg mL^−1D-luciferin). 100,000–200,000 cells were seeded on 96-well white bottom plates (SPL) and incubated at 37 °C for 45 min followed by 45 min incubation at room temperature. After 90 min of incubation, basal luminescence signals were recorded. In total, 25 μl of test ligand with various concentrations and 1 μM Forskolin (Sigma-Aldrich) were treated to the cells and luminescence signals were measured by Tristar 2 LB 942 multimode reader (Berthold). […] Relative luminescence unit (%) was calculated with the signal of wells treated with vehicle as 0% and the signal of wells treated with 1 μM Forskolin as 100% (DiRaddo et al, [2014]). Nonlinear regression was performed using a three-parameter logistic equation.

C3aR I98^3.28A = molecular target: T2, C3aR I98^3.28A (Homo sapiens, UniProt Q16581, I98A); experiment: GloSensor-based cAMP assay, C3aR mutant I98A; details: for cAMP response (% Forskolin): I983.28A, single replicates
T2 construct: expressed in transfected cells; host or cells: HEK293T
T2 sequence (Q16581 1-482 I98A): T1 sequence (Q16581 1-482 H81A) with A81H, I98A
Procedure: as §1

C3aR = C3aR (Homo sapiens, UniProt Q16581); experiment: Gi recruitment BRET assay (C3aR-eYFP / Gαi-Rluc8, HEK293T); details: for ΔBRET (ligand-vehicle): individual replicates
C3aR, sequence (Q16581 whole entry): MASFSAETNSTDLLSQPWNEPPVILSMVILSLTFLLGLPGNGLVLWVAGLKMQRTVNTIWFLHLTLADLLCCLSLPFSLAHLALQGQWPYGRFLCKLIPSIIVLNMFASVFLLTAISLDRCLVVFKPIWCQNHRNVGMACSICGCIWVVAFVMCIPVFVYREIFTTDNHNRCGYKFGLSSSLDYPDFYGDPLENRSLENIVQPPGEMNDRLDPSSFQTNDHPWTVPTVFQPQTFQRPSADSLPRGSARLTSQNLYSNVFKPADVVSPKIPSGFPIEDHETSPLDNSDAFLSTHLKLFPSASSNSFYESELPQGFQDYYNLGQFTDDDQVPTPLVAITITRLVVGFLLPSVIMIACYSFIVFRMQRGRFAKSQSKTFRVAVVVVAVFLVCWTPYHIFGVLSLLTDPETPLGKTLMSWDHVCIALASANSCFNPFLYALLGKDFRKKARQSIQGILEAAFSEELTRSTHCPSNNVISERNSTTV
C3aR, sequence (P63096 2-354 partner limits assumed): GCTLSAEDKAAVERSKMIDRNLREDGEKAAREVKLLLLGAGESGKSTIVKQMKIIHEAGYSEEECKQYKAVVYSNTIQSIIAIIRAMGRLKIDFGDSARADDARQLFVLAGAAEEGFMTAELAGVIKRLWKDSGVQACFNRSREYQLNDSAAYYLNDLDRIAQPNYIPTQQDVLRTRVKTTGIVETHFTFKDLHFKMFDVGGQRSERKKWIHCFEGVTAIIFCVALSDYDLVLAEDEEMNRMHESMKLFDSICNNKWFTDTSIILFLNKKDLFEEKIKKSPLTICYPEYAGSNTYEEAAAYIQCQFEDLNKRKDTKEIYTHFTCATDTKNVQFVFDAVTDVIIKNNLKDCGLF
C3aR, sequence (P62873 2-340 partner limits assumed): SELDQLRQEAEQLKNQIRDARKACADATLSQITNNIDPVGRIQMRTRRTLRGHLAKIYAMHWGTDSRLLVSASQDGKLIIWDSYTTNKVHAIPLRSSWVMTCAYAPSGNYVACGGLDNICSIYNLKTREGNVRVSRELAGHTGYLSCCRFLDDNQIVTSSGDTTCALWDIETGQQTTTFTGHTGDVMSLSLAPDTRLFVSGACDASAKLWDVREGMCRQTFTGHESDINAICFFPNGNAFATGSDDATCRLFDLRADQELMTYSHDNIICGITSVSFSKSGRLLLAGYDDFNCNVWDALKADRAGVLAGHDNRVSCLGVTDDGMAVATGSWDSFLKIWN
C3aR, sequence (P59768 2-68 partner limits assumed): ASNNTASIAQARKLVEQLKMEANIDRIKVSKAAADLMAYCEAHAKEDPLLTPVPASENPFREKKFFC
Procedure: HEK293T cells were seeded on 6-well plates (NEST) and transfected with pcDNA3.1 plasmids encoding C3aR-eYFP, Gαi-Rluc8, Gβ1, and Gγ2 with a ratio of 5:1:1:1. After 48 h, cells were harvested and resuspended with in PBS. Cells were treated with test ligand with various concentrations and seeded on 96-well white bottom plates (SPL). After 3 min incubation at 37 °C, coelenterazine h (Nanolight) was added with a final concentration of 10 μM. Luminescence and fluorescence were measured using a Tristar 2 LB 942 multimode reader (Berthold).

[1] = molecular target: T3, C3aR I102^3.32A/I421^7.39A (Homo sapiens, UniProt Q16581, I102A/I421A); experiment: GloSensor-based cAMP assay, C3aR double mutant I102A/I421A; details: for cAMP response (% Forskolin): single replicates
T3 construct: expressed in transfected cells; host or cells: HEK293T
T3 sequence (Q16581 1-482 I102A/I421A): T1 sequence (Q16581 1-482 H81A) with A81H, I102A, I421A
Procedure: as §1

[2] = Dunnett's multiple comparisons test, WT minus mutant

## C3a: anaphylatoxin C3a, natural peptide ligand of C3aR (a 77-amino acid peptide), Sigma-Aldrich
C3aR H81^2.63A; [2]
  Mean Diff. of pIC50, WT vs. H81A: 0.390
C3aR H81^2.63A; H81^2.63A relative to WT C3aR
  ΔpIC50 ± SE of Diff.: -0.39 ± 0.05
C3aR H81^2.63A; H81^2.63A, dose-response plot, read-out: IC50
  IC50: 7.45 nM
C3aR H81^2.63A; H81^2.63A, individual replicates
  pIC50 (Replicate): 8.23 and 8.03 and 8.24 and 8.26 and 7.82 and 8.16 and 8.00
C3aR H81^2.63A; H81^2.63A, mean of independent experiments
  pIC50 ± SEM (Mean): 8.11
C3aR H81^2.63A; Log[C3a (M)] -7
  cAMP response (% Forskolin): 16.97 % Forskolin and 18.16 % Forskolin and 16.81 % Forskolin and 12.45 % Forskolin and 16.49 % Forskolin and 12.75 % Forskolin and 10.89 % Forskolin
C3aR H81^2.63A; Log[C3a (M)] -8
  cAMP response (% Forskolin): 37.38 % Forskolin and 51.57 % Forskolin and 36.98 % Forskolin and 30.38 % Forskolin and 58.58 % Forskolin and 40.19 % Forskolin and 48.13 % Forskolin
C3aR H81^2.63A; Log[C3a (M)] -9
  cAMP response (% Forskolin): 95.75 % Forskolin and 95.02 % Forskolin and 98.54 % Forskolin and 105.34 % Forskolin and 92.35 % Forskolin and 92.22 % Forskolin and 94.48 % Forskolin
C3aR H81^2.63A; Log[C3a (M)] -10
  cAMP response (% Forskolin): 97.40 % Forskolin and 98.52 % Forskolin and 99.76 % Forskolin and 98.68 % Forskolin and 88.34 % Forskolin and 99.56 % Forskolin and 95.62 % Forskolin
C3aR H81^2.63A; Log[C3a (M)] -11
  cAMP response (% Forskolin): 96.99 % Forskolin and 98.64 % Forskolin and 99.98 % Forskolin and 102.79 % Forskolin and 93.58 % Forskolin and 91.17 % Forskolin and 97.12 % Forskolin
C3aR H81^2.63A; Log[C3a (M)] -12
  cAMP response (% Forskolin): 95.00 % Forskolin and 97.54 % Forskolin and 97.75 % Forskolin and 103.25 % Forskolin and 100.37 % Forskolin and 97.05 % Forskolin and 96.06 % Forskolin
C3aR I98^3.28A; [2]
  Mean Diff. of pIC50, WT vs. I98A: 0.113
C3aR I98^3.28A; I98^3.28A relative to WT C3aR
  ΔpIC50 ± SE of Diff.: -0.11 ± 0.02
C3aR I98^3.28A; I98^3.28A, dose-response plot, read-out: IC50
  IC50: 4.07 nM
C3aR I98^3.28A; I98^3.28A, individual replicates
  pIC50 (Replicate): 8.38 (2×) and 8.42 and 8.40 and 8.08 and 8.54 and 8.47
C3aR I98^3.28A; I98^3.28A, mean of independent experiments
  pIC50 ± SEM (Mean): 8.38 ± 0.05 and 8.38
C3aR I98^3.28A; Log[C3a (M)] -7
  cAMP response (% Forskolin): 12.31 % Forskolin and 10.90 % Forskolin and 9.84 % Forskolin and 8.89 % Forskolin and 11.38 % Forskolin and 5.37 % Forskolin and 7.43 % Forskolin
C3aR I98^3.28A; Log[C3a (M)] -8
  cAMP response (% Forskolin): 27.29 % Forskolin and 21.82 % Forskolin and 20.14 % Forskolin and 14.26 % Forskolin and 42.67 % Forskolin and 12.53 % Forskolin and 15.24 % Forskolin
C3aR I98^3.28A; Log[C3a (M)] -9
  cAMP response (% Forskolin): 88.79 % Forskolin and 95.53 % Forskolin and 90.20 % Forskolin and 95.03 % Forskolin and 96.77 % Forskolin and 78.73 % Forskolin and 85.71 % Forskolin
C3aR I98^3.28A; Log[C3a (M)] -10
  cAMP response (% Forskolin): 99.83 % Forskolin and 101.03 % Forskolin and 99.65 % Forskolin and 94.56 % Forskolin and 95.76 % Forskolin and 97.03 % Forskolin and 93.13 % Forskolin
C3aR I98^3.28A; Log[C3a (M)] -11
  cAMP response (% Forskolin): 97.32 % Forskolin and 101.48 % Forskolin and 99.97 % Forskolin and 96.12 % Forskolin and 97.86 % Forskolin and 93.68 % Forskolin and 92.51 % Forskolin
C3aR I98^3.28A; Log[C3a (M)] -12
  cAMP response (% Forskolin): 95.26 % Forskolin and 98.35 % Forskolin and 96.71 % Forskolin and 98.06 % Forskolin and 93.96 % Forskolin and 97.55 % Forskolin and 101.79 % Forskolin
C3aR; Figure EV1A numerical data, curve fit
  pEC50 Value: 8.52
C3aR; Log[ligand (M)] -7
  ΔBRET (ligand-vehicle): 0.032 and 0.030 and 0.024 and 0.026
C3aR; Log[ligand (M)] -8
  ΔBRET (ligand-vehicle): 0.029 and 0.025 and 0.020 and 0.022
C3aR; Log[ligand (M)] -9
  ΔBRET (ligand-vehicle): 0.010 and 0.009 and 0.006 and 0.007
C3aR; Log[ligand (M)] -10
  ΔBRET (ligand-vehicle): 0.00235 and 0.00134 and 0.00248 and 0.003
C3aR; Log[ligand (M)] -11
  ΔBRET (ligand-vehicle): 0.000317 and 0.00116 and 0.00278 and 0.00544
C3aR; Log[ligand (M)] -12
  ΔBRET (ligand-vehicle): 0.000368 and 0.000727 and 0.00354 and 0.006
C3aR; span of ΔBRET curve, Figure EV1A numerical data
  Span Value: 0.027
[1]; I102A/I421A, Log[C3a (M)] -7
  cAMP response (% Forskolin): 60.33 % Forskolin and 51.98 % Forskolin and 58.06 % Forskolin
[1]; I102A/I421A, Log[C3a (M)] -8
  cAMP response (% Forskolin): 94.58 % Forskolin and 89.45 % Forskolin and 91.46 % Forskolin
[1]; I102A/I421A, Log[C3a (M)] -9
  cAMP response (% Forskolin): 96.12 % Forskolin and 94.02 % Forskolin and 96.29 % Forskolin
[1]; I102A/I421A, Log[C3a (M)] -10
  cAMP response (% Forskolin): 100.40 % Forskolin and 98.48 % Forskolin and 97.75 % Forskolin
[1]; I102A/I421A, Log[C3a (M)] -11
  cAMP response (% Forskolin): 101.76 % Forskolin and 98.75 % Forskolin and 98.69 % Forskolin
[1]; I102A/I421A, Log[C3a (M)] -12
  cAMP response (% Forskolin): 99.03 % Forskolin and 95.31 % Forskolin and 95.64 % Forskolin
[1]; I102^3.32A/I421^7.39A relative to WT C3aR
  ΔpIC50 ± SE of Diff.: -0.51 ± 0.05
[1]; I102^3.32A/I421^7.39A, dose-response plot, read-out: IC50
  IC50: 10.1 nM
[1]; I102^3.32A/I421^7.39A, individual replicates
  pIC50 (Replicate): 8.09 and 7.94 and 7.95
[1]; I102^3.32A/I421^7.39A, mean of independent experiments
  pIC50 ± SEM (Mean): 7.99
[1]; I1023.32A/I4217.39A, Log[C3a (M)] -7
  cAMP response (% Forskolin): 17.14 % Forskolin and 17.92 % Forskolin and 21.78 % Forskolin
[1]; I1023.32A/I4217.39A, Log[C3a (M)] -8
  cAMP response (% Forskolin): 50.03 % Forskolin and 58.06 % Forskolin and 57.92 % Forskolin
[1]; I1023.32A/I4217.39A, Log[C3a (M)] -9
  cAMP response (% Forskolin): 101.91 % Forskolin and 104.37 % Forskolin and 102.64 % Forskolin
[1]; I1023.32A/I4217.39A, Log[C3a (M)] -10
  cAMP response (% Forskolin): 108.19 % Forskolin and 105.12 % Forskolin and 103.38 % Forskolin
[1]; I1023.32A/I4217.39A, Log[C3a (M)] -11
  cAMP response (% Forskolin): 107.31 % Forskolin and 106.77 % Forskolin and 101.12 % Forskolin
[1]; I1023.32A/I4217.39A, Log[C3a (M)] -12
  cAMP response (% Forskolin): 98.25 % Forskolin and 100.53 % Forskolin and 100.03 % Forskolin
